Consider 120 sequences from the supplement of paper PMC10126150.

± gives the standard deviation of the averaged measurements.
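Also: ATP exposure 15 min at 22 °C before imaging.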

This data set concerns ATP. The data set is described as follows: switch fluorescence ratio, 500 uM ATP over buffer (Cy3 cluster intensity, sum of 5 cycles each) (fold (ratio)); higher = stronger signal-on switching upon ATP binding; sequences stand for … in TCGTCGGCAGCGTCAGATGTGTATAAGAGACAGTTTTTTTTTTTTTTTTTTTTTTTTT…TC. As to conditions: aptamer strand: ATP DNA aptamer (quencher-CACCTGGGGGAGTATTGCGGAGGAAGG + anchor), 100 nM annealed; ATP concentration: 500 uM. In short, it runs like this:
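The quencher-labelled ATP aptamer, at 100 nM, was annealed to Cy3-labelled switching-strand clusters on a modified Illumina MiSeq flow-cell. The clusters were imaged in selection buffer, then after 15 min with 500 uM ATP at 22 °C, and this buffer/ATP cycle ran five times with NaOH stripping and re-annealing between runs. Per-cluster fluorescence ratios, summed target-cycle over summed buffer-cycle Cy3 intensity, were averaged per switch-domain sequence. Clusters outside 100-1000 RFU were excluded.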
Regarding AGGGAGTTGG, the switch fluorescence ratio came to 0.995 ± 0.032.
In the case of TGTCGTGGGA it was 1.01 ± 0.038; in that of CTAGTTAAGT, 0.991 ± 0.073.
For GGATTGAATC, the switch fluorescence ratio was determined as 1 ± 0.015.
The value for ACAAGTATTA was 1.017 ± 0.0051; that for CAGCTAAAGT was 1.009 ± 0.0017.
In the case of GCCGTGTTGG it was 1 ± 0.032.
The value for ACATATTTTA was 1.03 ± 0.016; that for AAGGGGATTC was 1.07 ± 0.012.
On to CGCATGTCTT, for which the switch fluorescence ratio came to 1.07 ± 0.0029.
In the case of GGGCGAAAAA it was 0.987 ± 0.054.
The value for CTTTAAGTCT was 0.994 ± 0.039.
As to GGGCAGGGGT, the switch fluorescence ratio was 1.45 ± 0.84.
In the case of TTTTGACTGC it was 0.977 ± 0.05; in that of GCAATGGCAT, 0.987 ± 0.03; in that of CCTATTACTT, 1 ± 0.034.
In the case of ATTAGGATTT it was 0.998 ± 0.0097; in that of ATTAGGCATG, 1 ± 0.042; in that of ATAATTTGCG, 0.9814 ± 0.0073.
The value for GAGAGGAGCT was 1.01 ± 0.039; that for AATGTGGGGG was 0.996 ± 0.018; that for TTCTATATAT was 1.01 ± 0.035.
On to CGAGGAGGGG, for which the switch fluorescence ratio turned out to be 0.995 ± 0.02.
As to CAATTACTAG, the switch fluorescence ratio is 1.01 ± 0.029.
As for TATAAGAGTT, the switch fluorescence ratio came out at 1.02 ± 0.035.
For AGATCTTGCG, the switch fluorescence ratio worked out at 0.979 ± 0.019.
In the case of TTGGTGTGAC it was 1.05 ± 0.065; in that of TGGTAAAGGG, 0.991 ± 0.034; in that of ATGGGAAGGG, 1.01 ± 0.015.
In the case of CGAGGTGTGT it was 1.009 ± 0.0022; in that of GAAATTATCG, 0.9988 ± 0.0034; in that of GTTAGGAGAA, 0.9807 ± 0.0092.
In the case of GAGAGAACTT it was 1.03 ± 0.021; in that of ACAGGACCGT, 1.11 ± 0.038.
Regarding CACGGGCCCT, the switch fluorescence ratio was found to be 1.02 ± 0.017.
The value for ATGATTATAT was 0.99 ± 0.017; that for AGCGGTCCGG was 1 ± 0.058.
In the case of AAAGCGGGGA it was 1.04 ± 0.011; in that of AAATAAGATT, 1.02 ± 0.018; in that of GGTTGGCGTC, 0.955 ± 0.041.
In the case of ATTTTGGTCG it was 0.982 ± 0.082; in that of AAAGGGCGGG, 1.016 ± 0.0049.
As for GGAGGGTTTG, the switch fluorescence ratio stood at 0.992 ± 0.034.
The value for TGTTTGGGTT was 0.978 ± 0.012; that for TTAGTTTGGA was 0.959 ± 0.04; that for CGGGGTCATT was 0.979 ± 0.011.
Take AATACATTCT: the switch fluorescence ratio is 1.05 ± 0.011.
The value for CTTGGGCCGC was 1.13 ± 0.048; that for GGTCCCGGTG was 1.1 ± 0.013.
In the case of TCCTTTTGTT it was 1.06 ± 0.15; in that of AATCGGGGGA, 1.01 ± 0.048; in that of GTAGGCAACA, 1.01 ± 0.068.
As to ATGTCGGGCT, the switch fluorescence ratio was 0.982 ± 0.042.
In the case of CATTTCAGGA it was 1.004 ± 0.0027; in that of TTCTGTTAGC, 1.03 ± 0.043; in that of GATTTTGTGT, 0.98 ± 0.043.
The value for GCTTGATGTG was 0.986 ± 0.015; that for GGGTTCCGGG was 1.02 ± 0.021.
In the case of GATTAGAAGG it was 1 ± 0.026; in that of GGGGAGTGCG, 0.969 ± 0.01.
For ATGCCTGTGT, the switch fluorescence ratio is 0.977 ± 0.012.
The value for TTTGTACTCG was 1.01 ± 0.011; that for TGGTTTTCAG was 0.997 ± 0.015.
The value for AAATTGGTAA was 1 ± 0.017.
Consider TTAAAAGATT, for which the switch fluorescence ratio turned out to be 0.99 ± 0.075.
The value for CCAGCAAGAT was 4.63 ± 0.51; that for CGGAAAAAAG was 1.018 ± 0.007; that for AAGGGGAATC was 1.01 ± 0.024.
The value for ATCTGACTCC was 2.52 ± 0.19.
In the case of TCTCGGGTCT it was 1.02 ± 0.045; in that of GGCGGGTCGG, 0.972 ± 0.029.
In the case of AAATGGTAGG, the switch fluorescence ratio amounted to 0.996 ± 0.0086.
In the case of TGGGGTGTCT it was 0.993 ± 0.039; in that of TTTTGTCGTT, 1.03 ± 0.095; in that of AGAGTGTAGG, 1.08 ± 0.034.
In the case of TATTTAACAC it was 1.1 ± 0.12; in that of TGGAGGGGTA, 1.05 ± 0.053; in that of TTGAACTTTG, 0.978 ± 0.061.
The value for TTCTTTGAGA was 1.006 ± 0.0062.
On to CGTTTCCCGG, for which the switch fluorescence ratio is 0.992 ± 0.031.
In the case of CCGATACGGG it was 1.072 ± 0.0082; in that of GAGCGTCTGG, 1.02 ± 0.011.
The value for CGTGTTGGCT was 1.072 ± 0.0032; that for GTGCTTGGGC was 0.9955 ± 0.0058; that for GCCGGGGATG was 1.007 ± 0.0024.
Turning to TATCATTCGG, the switch fluorescence ratio worked out at 1.01 ± 0.043.
The value for TGATTTATTT was 0.9927 ± 0.0048; that for TGCTTGATGG was 0.9851 ± 0.0044; that for GGGGAAGCGA was 1.09 ± 0.038.
The value for ATGTCTTTTG was 1.03 ± 0.022; that for TTGGGGTCGT was 0.974 ± 0.03.
On to TATCAAAGGC, for which the switch fluorescence ratio worked out at 1.014 ± 0.0082.
In the case of ACGGGATTTT it was 1.03 ± 0.026; in that of TTTAGTACTG, 1.05 ± 0.032.
In the case of CCGTTTTTGC, the switch fluorescence ratio stood at 1.14 ± 0.09.
For CGGTGTAGGG, the switch fluorescence ratio was 0.99 ± 0.03.
In the case of TTTGTGGGTG it was 1.01 ± 0.019.
The value for AAATCCGATT was 1.01 ± 0.011; that for TATCCTATTA was 1.003 ± 0.0036.
The value for TTCCCCATGG was 1.43 ± 0.6; that for CGTTTGATTA was 0.989 ± 0.017; that for TTCTATTATA was 0.977 ± 0.018.
TCGGGTAAGA: the switch fluorescence ratio came out at 1.04 ± 0.026.
In the case of ATATCTATAG it was 0.958 ± 0.018.
In the case of GGTTGGGTGG it was 0.986 ± 0.03; in that of TGGGGGGGTC, 0.988 ± 0.048; in that of TGTAAGGACT, 1.01 ± 0.038.
In the case of TGTAGTCTGG it was 0.969 ± 0.024.
For AAGGTTTAAA, the switch fluorescence ratio was found to be 0.982 ± 0.032.
In the case of TTTAGTCTGC it was 0.993 ± 0.018; in that of TACCAAAAAA, 1.2 ± 0.18.
In the case of ATACTATCTT, the switch fluorescence ratio turned out to be 0.996 ± 0.019.
The value for GGTGTCAGCT was 0.967 ± 0.038; that for GTTATTGTAT was 0.977 ± 0.014.
In the case of TTACTTGATG it was 1.02 ± 0.031; in that of TCATCTATAT, 1.03 ± 0.028; in that of CGGGCCTTGG, 1.026 ± 0.0016.
The value for AATTCTAAAC was 0.9881 ± 0.0038; that for TGTTTTATTG was 1.01 ± 0.016.
As for GAACGGGGAA, the switch fluorescence ratio was determined as 0.996 ± 0.015.
